This note sets out measurements from article PMC12808100 (2025).

This assay concerns the target catalytic subunit of DNA polymerase ε (POLE), endogenous (human (endogenous in Jurkat and in …, UniProt Q07864 1-2286)). Description: nHU, apparent Kd.

Sequence of catalytic subunit of DNA polymerase ε (POLE), endogenous (human (Q07864 whole entry): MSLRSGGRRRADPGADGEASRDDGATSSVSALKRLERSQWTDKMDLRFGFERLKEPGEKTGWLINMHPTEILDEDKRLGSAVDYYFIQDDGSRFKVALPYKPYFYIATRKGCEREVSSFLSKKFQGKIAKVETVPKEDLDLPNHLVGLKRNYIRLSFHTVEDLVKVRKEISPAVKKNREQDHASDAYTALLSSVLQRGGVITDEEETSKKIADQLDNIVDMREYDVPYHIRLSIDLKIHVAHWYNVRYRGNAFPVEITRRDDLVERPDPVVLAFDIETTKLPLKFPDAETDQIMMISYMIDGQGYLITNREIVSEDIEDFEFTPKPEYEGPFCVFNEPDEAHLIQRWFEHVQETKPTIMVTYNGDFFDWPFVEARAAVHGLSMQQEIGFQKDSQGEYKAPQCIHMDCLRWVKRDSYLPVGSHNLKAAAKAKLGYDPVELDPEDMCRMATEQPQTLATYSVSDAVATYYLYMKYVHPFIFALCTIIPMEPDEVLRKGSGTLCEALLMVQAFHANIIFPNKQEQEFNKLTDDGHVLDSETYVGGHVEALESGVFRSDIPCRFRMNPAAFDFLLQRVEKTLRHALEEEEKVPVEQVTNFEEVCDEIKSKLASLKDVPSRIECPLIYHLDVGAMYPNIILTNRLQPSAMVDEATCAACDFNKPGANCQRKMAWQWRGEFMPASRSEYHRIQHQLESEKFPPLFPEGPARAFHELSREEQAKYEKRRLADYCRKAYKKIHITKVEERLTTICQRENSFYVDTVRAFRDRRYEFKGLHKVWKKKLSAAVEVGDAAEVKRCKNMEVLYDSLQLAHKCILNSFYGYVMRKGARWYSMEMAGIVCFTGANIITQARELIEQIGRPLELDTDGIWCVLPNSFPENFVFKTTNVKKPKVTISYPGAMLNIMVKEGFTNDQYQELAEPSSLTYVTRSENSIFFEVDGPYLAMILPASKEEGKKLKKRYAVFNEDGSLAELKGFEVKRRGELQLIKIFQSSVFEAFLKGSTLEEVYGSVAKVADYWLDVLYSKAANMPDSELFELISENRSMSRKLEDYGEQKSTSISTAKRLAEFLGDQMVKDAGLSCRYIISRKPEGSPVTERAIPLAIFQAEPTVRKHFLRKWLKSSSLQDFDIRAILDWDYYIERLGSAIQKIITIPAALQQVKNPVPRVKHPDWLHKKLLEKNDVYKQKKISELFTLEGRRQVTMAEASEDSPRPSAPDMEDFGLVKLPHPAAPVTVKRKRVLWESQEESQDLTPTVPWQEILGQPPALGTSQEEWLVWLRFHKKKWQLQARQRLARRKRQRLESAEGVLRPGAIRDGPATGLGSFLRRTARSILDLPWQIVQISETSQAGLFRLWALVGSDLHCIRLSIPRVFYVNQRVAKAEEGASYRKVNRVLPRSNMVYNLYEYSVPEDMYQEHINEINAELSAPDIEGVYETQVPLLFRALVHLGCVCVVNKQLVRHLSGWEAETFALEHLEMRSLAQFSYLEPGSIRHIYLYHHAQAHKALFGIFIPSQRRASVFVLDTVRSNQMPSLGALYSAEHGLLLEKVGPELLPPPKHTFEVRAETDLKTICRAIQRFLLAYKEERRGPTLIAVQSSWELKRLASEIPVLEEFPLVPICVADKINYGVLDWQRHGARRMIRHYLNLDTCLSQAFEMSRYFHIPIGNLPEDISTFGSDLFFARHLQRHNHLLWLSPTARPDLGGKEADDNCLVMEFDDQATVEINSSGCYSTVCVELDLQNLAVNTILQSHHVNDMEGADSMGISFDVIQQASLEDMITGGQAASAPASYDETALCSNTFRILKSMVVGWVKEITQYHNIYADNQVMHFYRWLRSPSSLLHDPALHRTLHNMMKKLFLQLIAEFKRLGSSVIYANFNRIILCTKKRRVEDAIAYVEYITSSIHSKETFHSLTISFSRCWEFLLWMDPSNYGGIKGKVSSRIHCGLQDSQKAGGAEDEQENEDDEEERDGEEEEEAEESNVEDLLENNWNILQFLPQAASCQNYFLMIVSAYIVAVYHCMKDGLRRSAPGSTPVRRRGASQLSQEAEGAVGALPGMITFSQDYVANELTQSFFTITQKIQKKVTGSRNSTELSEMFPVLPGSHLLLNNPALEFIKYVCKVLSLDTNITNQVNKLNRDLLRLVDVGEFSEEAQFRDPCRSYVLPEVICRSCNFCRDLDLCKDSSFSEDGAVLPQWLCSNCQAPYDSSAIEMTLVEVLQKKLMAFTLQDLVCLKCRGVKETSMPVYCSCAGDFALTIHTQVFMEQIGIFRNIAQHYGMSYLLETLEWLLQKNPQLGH

B1: NPF motif peptide of POLA1 (residues 177-206) (peptide)
peptide: PVMILKKKRSIGASPNPFSVHTATAVPSGK
HELM: PEPTIDE1{[O=C1N[C@H]2[C@H](CS[C@H]2CCCCC(=O)[*:2])N1].[O=C(CCCCCN[*:1])[*:2]].P.V.M.I.L.K.K.K.R.S.I.G.A.S.P.N.P.F.S.V.H.T.A.T.A.V.P.S.G.K.[am]}$$$$V2.0
SMILES: CC[C@H](C)[C@H](NC(=O)[C@H](CO)NC(=O)[C@H](CCCNC(=N)N)NC(=O)[C@H](CCCCN)NC(=O)[C@H](CCCCN)NC(=O)[C@H](CCCCN)NC(=O)[C@H](CC(C)C)NC(=O)[C@@H](NC(=O)[C@H](CCSC)NC(=O)[C@@H](NC(=O)[C@@H]1CCCN1C(=O)CCCCCNC(=O)CCCC[C@@H]1SC[C@@H]2NC(=O)N[C@@H]21)C(C)C)[C@@H](C)CC)C(=O)NCC(=O)N[C@@H](C)C(=O)N[C@@H](CO)C(=O)N1CCC[C@H]1C(=O)N[C@@H](CC(N)=O)C(=O)N1CCC[C@H]1C(=O)N[C@@H](Cc1ccccc1)C(=O)N[C@@H](CO)C(=O)N[C@H](C(=O)N[C@@H](Cc1c[nH]cn1)C(=O)N[C@H](C(=O)N[C@@H](C)C(=O)N[C@H](C(=O)N[C@@H](C)C(=O)N[C@H](C(=O)N1CCC[C@H]1C(=O)N[C@@H](CO)C(=O)NCC(=O)N[C@@H](CCCCN)C(N)=O)C(C)C)[C@@H](C)O)[C@@H](C)O)C(C)C
For the molecule B1, the Kd is 2500 nM.
